Results as given in patent publication US20220175781A1, “CD40L COMPOSITIONS AND METHODS FOR TUNABLE REGULATION” (Obsidian Therapeutics, Inc., priority 2019, published 2022).

Experiments:
HEK293T cells = experiment: Surface expression of CD40L trimerization mutants, transfected HEK293T cells (FACS); format: cell-based, human; conditions: transiently transfected HEK293T cells
Procedure: Mutations were engineered within CD40L payload to reduce the binding affinity of CD40L payload for the CD40L endogenously expressed by cells. Constructs OT-002078, OT-002079, OT-002080, OT-002081, OT-002082 were generated with the CD40L trimerization mutants. HEK293T cells were transiently transfected with the constructs and CD40L expression was measured by FACS.

[1] = system: T cells co-cultured with monocyte derived dendritic cells (mDC); experiment: CD40L levels in T cells in mDC co-culture (FACS); format: cell-based; conditions: mDC co-culture 2 days
Source text: (§1) In order to engage dendritic cells in an immune response, dendritic cells must be converted to a functional state by an antigen-specific CD4+ helper T cell. Activation of the dendritic cells may be followed by the activation of CD8+ T cells by the dendritic cells, a process referred to as dendritic cell licensing. Engagement of the CD40L expressed on the CD4+ cells with the CD40 on the dendritic cells can result in (i) dendritic cell stimulation-measured by expression of co-stimulatory and MHC molecules (ii) proinflammatory cytokine release (e.g. IL12, TNFα and INFγ) (iii) epitope spreading. To measure the effect of CD40L expression that is tuned by the biocircuits of the present disclosure, CD4+ T cells or Jurkat cells expressing any of the CD40L constructs described herein were co-cultured with dendritic cells.
(§2) Dendritic cell function in response to co-culture with T cells expressing CD40L was evaluated in the presence of ligand or corresponding vehicle control. Monocyte derived dendritic cells (mDC) (CD14+) were isolated from fresh blood and cultured for 5 days with IL-4 (7.5 ng/mL) and GM-CSF (20 ng/mL). The mDCs were frozen down after the 5 day culture. T cells were transduced with OT-001662 and expanded for 9 days before being frozen down. mDCs and T cells were thawed and co-cultured 1:10 DC: T cell ratio (i.e. 5×10^4 DCs: 5×10^5 T cells). mDC and T cells were co-cultured for 2 days before cells were collected for flow cytometry and supernatants were collected for cytokine analysis. For evaluation of regulated constructs, ligand (various doses of TMP) was added at the time initiating the co-culture and was kept in the co-culture for 2 days. Cytokines were analyzed by MSD after a single freeze thaw cycle. All cells were cultured in complete RPMI with 10% FBS during the course of the experiment. SR indicates stabilization ratio.

[2] = system: Monocyte derived dendritic cells (mDC); experiment: Cytokine production in mDC-T cell co-culture (MSD); format: cell-based; conditions: mDC-T cell co-culture 2 days
Source text: as §1, §2

Jurkat cells = experiment: CD40L shedding ELISA of supernatant, Jurkat cells with or without CD40-Fc receptor; format: cell-based; design: CD40L levels in supernatant: unit not given here; conditions: 6 hours
Procedure: Sheddases e.g. ADAM10/17 present in the tumor microenvironment can cleave CD40L thereby preventing the successful activation of CD40 by CD40L. […] OT-001669 which has a deletion of amino acids 1-13 of CD40L was designed to reduce internalization and OT-001668 which has a deletion of amino acids 110-116 of CD40L was designed to remove the ADAM10/17 sites. Jurkat cells stably expressing the full length construct OT-001661, OT-001669, or OT-001668 were cultured for 6 hours with 1.25 μg/ml recombinant human (h) or mouse (m) CD40-Fc receptor or left untreated and tested using an ELISA assay (Table 15).

B1: OT-001661: constitutively expressed full length CD40L construct (protein)
chain: MHMIETYNQTSPRSAATGLPISMKIFMYLLTVFLITQMIGSALFAVYLHRRLDKIEDERNLHEDFVFMKTIQRCNTGERSLSLLNCEEIKSQFEGFVKDIMLNKEETKKENSFEMQKGDQNPQIAAHVISEASSKTTSVLQWAEKGYYTMSNNLVTLENGKQLTVKRQGLYYIYAQVTFCSNREASSQAPFIASLCLKSPGRFERILLRAANTHSSAKPCGQQSIHLGGVFELQPGASVFVNVTDPSQVSHGTGFTSFGLLKL
HEK293T cells
  % CD40L positive: 43.3%
[1]; CD4+, DMSO
  % CD40L+: 68.1%
  CD40L MFI: 579
[1]; CD4+, TMP
  % CD40L+: 68.3%
  CD40L MFI: 580
[1]; CD8+, DMSO
  % CD40L+: 62.2%
  CD40L MFI: 495
[1]; CD8+, TMP
  % CD40L+: 62.3%
  CD40L MFI: 499
[2]; DMSO
  Cytokine Production IFNg: 12973 pg/mL
  Cytokine Production IL12: 58.935 pg/mL
  Cytokine Production TNFa: 456.3242 pg/mL
[2]; TMP
  Cytokine Production IFNg: 10939.9 pg/mL
  Cytokine Production IL12: 86.229 pg/mL
  Cytokine Production TNFa: 440.0804 pg/mL
Jurkat cells; 1.25 μg/ml hCD40-Fc
  CD40L levels in supernatant: 3599.72
Jurkat cells; 1.25 μg/ml mCD40-Fc
  CD40L levels in supernatant: 2589.21
Jurkat cells; Untreated
  CD40L levels in supernatant: 1382.06
